Measured values published in patent publication US20240101675A1 (BIOLOJIC DESIGN, published 2024).

Tests used:
recombinant human IL-13 [1] = target: T1, recombinant human IL-13 (human, UniProt P35225 35-146); assay: cell-based or functional assay
[2] = target: T2, hTSLP-His (ACRO biosystems cat: TSP-H52Hb) (human, UniProt Q969D9 29-159, limits assumed); assay: cell-based or functional assay
IL-4 = target: T3, IL-4 (Homo sapiens (Human), UniProt P05112 25-153); assay: specificity ELISA: plate coated with 250 ng ligand, 100 nM IgG, anti-human Fc-HRP
T3 sequence: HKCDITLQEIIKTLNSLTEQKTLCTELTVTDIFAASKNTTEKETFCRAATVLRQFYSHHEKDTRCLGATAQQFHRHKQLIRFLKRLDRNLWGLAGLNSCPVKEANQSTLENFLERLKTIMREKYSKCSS

BSA = BSA (UniProt P02769 25-607); assay: as above
Sequence of BSA (P02769 25-607 limits assumed): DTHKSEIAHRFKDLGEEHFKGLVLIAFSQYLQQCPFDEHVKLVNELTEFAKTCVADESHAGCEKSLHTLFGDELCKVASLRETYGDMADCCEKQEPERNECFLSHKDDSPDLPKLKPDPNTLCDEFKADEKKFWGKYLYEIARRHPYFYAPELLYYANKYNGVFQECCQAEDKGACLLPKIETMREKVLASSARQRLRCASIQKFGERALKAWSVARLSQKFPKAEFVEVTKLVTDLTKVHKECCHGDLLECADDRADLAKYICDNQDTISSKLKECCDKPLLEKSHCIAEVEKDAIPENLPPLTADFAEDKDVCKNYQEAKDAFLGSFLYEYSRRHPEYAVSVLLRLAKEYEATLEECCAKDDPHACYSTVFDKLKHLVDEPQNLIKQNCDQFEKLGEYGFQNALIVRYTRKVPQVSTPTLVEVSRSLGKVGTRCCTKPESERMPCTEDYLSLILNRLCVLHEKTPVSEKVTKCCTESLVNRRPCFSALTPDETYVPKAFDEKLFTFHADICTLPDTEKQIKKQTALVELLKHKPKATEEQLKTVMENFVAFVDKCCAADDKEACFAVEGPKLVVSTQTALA

[3] = target: T4, IL-2 (specificity ELISA of Example 6) (Homo sapiens (Human), UniProt P60568 21-153); assay: as above
T4 sequence (P60568 21-153 limits assumed): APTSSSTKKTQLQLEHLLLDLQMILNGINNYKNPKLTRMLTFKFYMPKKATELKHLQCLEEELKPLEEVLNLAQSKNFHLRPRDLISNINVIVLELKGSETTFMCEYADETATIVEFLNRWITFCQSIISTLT

[4] = target: T5, recombinant cynomolgus monkey IL-13 (cynomolgus monkey, UniProt Q0PW92 21-132); assay: ELISA, ligand coated, IgG titrated 1 to 1000 nM
T5 construct: also called rc-IL-13; cIL-13
T5 sequence (Q0PW92 entry or part of it): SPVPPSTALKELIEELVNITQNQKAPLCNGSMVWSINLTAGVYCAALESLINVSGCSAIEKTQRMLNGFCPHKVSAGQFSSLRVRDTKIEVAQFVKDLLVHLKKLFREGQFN

cynomolgus monkey TSLP = target: T6, cynomolgus monkey TSLP (cynomolgus monkey, UniProt A0A7N9CAT7 29-159); assay: ELISA, ligand coated, IgG titrated 1 to 1000 nM
T6 construct: also called cTSLP; cyno-TSLP
T6 sequence (A0A7N9CAT7 entry or part of it): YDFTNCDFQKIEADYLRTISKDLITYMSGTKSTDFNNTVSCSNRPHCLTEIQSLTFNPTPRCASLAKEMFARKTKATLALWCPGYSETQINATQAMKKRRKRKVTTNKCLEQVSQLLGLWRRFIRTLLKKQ

human TSLP = target: T7, human TSLP (human, UniProt Q969D9 29-159); assay: ELISA, ligand coated, IgG titrated 1 to 1000 nM
T7 construct: also called hTSLP; h-TSLP

[5] = target: T2, hTSLP-His (ACRO biosystems cat: …); assay: competition ELISA: 3 nM hTSLP-His pre-mixed with IgG, plate coated with TSLP-R-Fc
recombinant human IL-13 [6] = target: T1, recombinant human IL-13; assay: SPR (BIAcore T200), IgG captured, hIL-13 as analyte 20 to 0.6 nM
recombinant human IL-13 [7] = target: T1, recombinant human IL-13; assay: cell-based or functional assay; remark: listed apart in the source
[8] = target: T4, IL-2 (specificity ELISA of Example 6); assay: specificity ELISA, ligand coated
[9] = target: T2, hTSLP-His (ACRO biosystems cat: …); assay: competition ELISA: hTSLP-His pre-mixed with soluble TSLP-R as competitor, plate coated with TSLP-R-Fc
[10] = target: T2, hTSLP-His (ACRO biosystems cat: …); assay: blocking ELISA: competitor mixed with 3 nM hTSLP-His, then on a plate coated with TSLP-R-Fc; bound hTSLP-His by anti-His-HRP
[11] = target: T8, recombinant human PD-1 tagged with histidine tag (hPD-1-His) (human, UniProt Q15116 25-167, limits assumed); assay: yeast surface display scFv, flow cytometry, 30 nM hPD-1-His
T8 construct: bought (Reprokine); not shown: histidine tag
T8 sequence (Q15116 25-167 limits assumed): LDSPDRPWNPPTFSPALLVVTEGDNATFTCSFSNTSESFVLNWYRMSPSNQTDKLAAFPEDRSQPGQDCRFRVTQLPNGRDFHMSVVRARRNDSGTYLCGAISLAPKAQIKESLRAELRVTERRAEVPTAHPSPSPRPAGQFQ

[12] = target: T9, recombinant human OX40 tagged with histidine tag (hOX40-His) (human, UniProt P43489 29-216); assay: yeast surface display scFv, flow cytometry, 90 nM hOX40-His
T9 construct: bought (Reprokine); also called hOX-His; not shown: histidine tag
T9 sequence (looked up): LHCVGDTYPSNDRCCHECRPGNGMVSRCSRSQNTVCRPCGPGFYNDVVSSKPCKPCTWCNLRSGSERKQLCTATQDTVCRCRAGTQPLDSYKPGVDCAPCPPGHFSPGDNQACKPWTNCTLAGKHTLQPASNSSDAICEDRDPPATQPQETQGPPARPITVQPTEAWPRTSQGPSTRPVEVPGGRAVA

T1 sequence (P35225 35-146 limits assumed): as the sequence (Q0PW92 entry or part of it) above, with S1G, K10R, V42M, N67S, R83H, V100L counted along it

B1: BDG33.023 (antibody, human IgG1, V domains shown)
VH: QMQLVESGGGVVQPGRSLRLSCAASGFAFRTYGMHWVRQAPGKGLEWVAVIWYDGSNTHYADSVKGRFTITRDNSKNTLNLQMNSLRAEDTAVYYCARAPQWYLSAEAFDLWGQGTMVTVSS
VL: SYVLTQPPSVSVAPGQTARITCGGNLIGSKLVHWYQQKPGQAPVLVVYDDSDRPSRIPERFSGSNSGNTATLTISRVEAGDEADYYCQVWDHSSDHVVFGGGTKLTVL
notes: IgG (human IgG1 format, symmetrical IgG); also called BGD33.023; BGD33.0023
IC50, inhibition of IL-13 signaling cascade in HEK-Blue IL-4/IL-13 cells (recombinant human IL-13 [1]): 1.3 nM
IC50, inhibition of TSLP dependent pSTAT5 activation in MUTZ5 cells [2]: 13 pM
binding result (IL-4): no binding (tested: 100 nM IgG (not on the sheet))
binding result (BSA): no binding (tested: 100 nM IgG (not on the sheet))
binding result [3]: no binding (tested: 100 nM IgG (not on the sheet))
EC50 [4]: 7.1 nM
EC50 (cynomolgus monkey TSLP): 8.2 nM
EC50 (human TSLP): 2.5 nM
IC50 [5]: 0.41 nM
Kd (recombinant human IL-13 [6]): 3.65 nM
koff (recombinant human IL-13 [6]): 0.0157 s⁻¹
kon (recombinant human IL-13 [6]): 4.31e+06 M⁻¹ s⁻¹

B2: BDG33.025 (antibody, human IgG1, V domains shown)
VH: QMQLVESGGGVVQPGRSLRLSCAASGFTFRTYGMHWVRQAPGKGLEWVADIWYDGSNKHYADSVKGRFTITRDNSKNTLNLQMNSLRAEDTAVYYCARAPQWYLVAEPFDLWGQGTMVTVSS
VL: SYVLTQPPSVSVAPGQTARITCGGNLIGSKLVHWYQQKPGQAPVLVVYDDSDRPSLIPERFSGSNSGNTATLTISRVEAGDEADYYCQVWDSSSDGVVFGGGTKLTVL
notes: IgG (human IgG1 format, symmetrical IgG); also called BGD33.025; BDG33.0025
IC50, inhibition of IL-13 signaling cascade in HEK-Blue IL-4/IL-13 cells (recombinant human IL-13 [1]): 25 nM
binding result (BSA): no binding (tested: 100 nM IgG (not on the sheet))
EC50 [4]: 1.5 nM
EC50 (cynomolgus monkey TSLP): 148 nM
EC50 (human TSLP): 12.8 nM
IC50 (read off the curve); HEK-Blue IL-4/IL-13 STAT6-SEAP reporter with 0.4 nM rh-IL-13, OD 620 (recombinant human IL-13 [7]): ~20 nM
binding result [8]: no binding (tested: 100 nM IgG)
Kd (recombinant human IL-13 [6]): 0.903 nM
koff (recombinant human IL-13 [6]): 0.0036 s⁻¹
kon (recombinant human IL-13 [6]): 4.07e+06 M⁻¹ s⁻¹

B3: TSLP-R-Fc tag (ACRO biosystems TSR-H525a) (Fc fusion, UniProt Q9HC73 23-231, looked up)
chain: QGGAAEGVQIQIIYFNLETVQVTWNASKYSRTNLTFHYRFNGDEAYDQCTNYLLQEGHTSGCLLDAEQRDDILYFSIRNGTHPVFTASRWMVYYLKPSSPKHVRFSWHQDAVTVTCSDLSYGDLLYEVQYRSPFDTEWQSKQENTCNVTIEGLDAEKCYSFWVRVKAMEDVYGPDTYPSDWSEVTCWQRGEIRDACAETPTPPKPKLSK
notes: bought; also called TSLP receptor; not shown: Fc tag
IC50 [9]: 3 nM
IC50 (read off the curve) [10]: ~3 nM

B4: 3212ACOXC81 (OX40 library) (scFv, V domains shown)
VH: QVQLVESGGGVVQPGRSLRLDCKASGIDFSNSGMHWVRQAPGKGLEWVAVIWYDGSTRYYADSVKGRFTISRDNSKNTLFLQMNSLRAEDTAVYYCATNDDYWGQGTLVTVSS
VL: EIVLTQSPATLSLSPGERATLSCRASQSVIHYLAWYQQKPGQAPRLLIYDASNRATGIPARFSGSGSGTDFTLTISSLEPEDFAVYYCQQYDNWPLTFGQGTKVEIK
notes: not shown: linker
binding result [11]: binds
binding result [12]: binds
